The text below walks through data of patent US20020082414A1.

The target of experiment [1] is human ETB-receptor (ET-receptor derived from pHETBR31 and pHETBR34) (human) (UniProt P24530). Nature of the experiment: displacement of 125I-ET-1 from COS-7 cells expressing the ETB-receptor. Background: Loss of bound radioactivity is the signal in a displacement assay; it reports binding, not function.
Experiment [2] deals with human ETA-receptor (ET-receptor derived from phETIR) (human) (UniProt P25101). Description: displacement of 50 pM 125I-ET-1 from COS-7 cells expressing the ETA-receptor.
human ETA-receptor (ET-receptor derived from phETIR) (human), sequence (P25101 21-427 limits assumed, form in doubt): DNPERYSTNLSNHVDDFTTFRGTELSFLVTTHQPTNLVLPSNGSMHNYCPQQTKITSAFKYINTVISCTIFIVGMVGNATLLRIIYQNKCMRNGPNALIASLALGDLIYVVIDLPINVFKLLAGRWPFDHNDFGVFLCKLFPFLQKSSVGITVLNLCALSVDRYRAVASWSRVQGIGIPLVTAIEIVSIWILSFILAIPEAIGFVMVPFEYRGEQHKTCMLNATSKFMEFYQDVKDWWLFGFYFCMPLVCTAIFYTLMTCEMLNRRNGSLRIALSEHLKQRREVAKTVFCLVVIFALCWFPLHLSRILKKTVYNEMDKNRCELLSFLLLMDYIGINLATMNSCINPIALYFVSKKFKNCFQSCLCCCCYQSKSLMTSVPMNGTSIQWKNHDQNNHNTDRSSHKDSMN

The IC50 is the point on the concentration scale where inhibition reaches its midpoint. A lower IC50 goes with greater potency.

human ETB-receptor (ET-receptor derived from pHETBR31 and pHETBR34) (human), sequence (P24530 27-442 limits assumed, form in doubt): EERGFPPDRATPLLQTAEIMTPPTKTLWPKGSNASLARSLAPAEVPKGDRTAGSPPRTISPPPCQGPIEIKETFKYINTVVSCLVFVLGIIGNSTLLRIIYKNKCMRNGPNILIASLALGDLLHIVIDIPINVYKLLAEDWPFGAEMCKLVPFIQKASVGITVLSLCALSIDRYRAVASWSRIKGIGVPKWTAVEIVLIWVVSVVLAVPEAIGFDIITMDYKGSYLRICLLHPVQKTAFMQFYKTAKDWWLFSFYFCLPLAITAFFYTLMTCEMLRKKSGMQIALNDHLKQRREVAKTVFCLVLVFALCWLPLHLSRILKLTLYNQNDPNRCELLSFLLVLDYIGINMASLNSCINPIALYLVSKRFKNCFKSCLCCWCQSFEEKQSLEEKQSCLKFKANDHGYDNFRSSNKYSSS

On to “Endothelin 2 (from UniProt P20800 49-69) (peptide)”, for which the IC50 in experiment [1] is 1 nM; in experiment [2] it was 6.1 nM.
In experiment [1], “Endothelin 3 (from UniProt P14138 97-117) (peptide)” yielded an IC50 of 1 nM.
